{
  "source": "paper PMC3320567",
  "target": "STAT6 (pcDNA4-STAT6-mychis expression construct) (UniProt P42226)",
  "sequence (P42226 whole entry)": "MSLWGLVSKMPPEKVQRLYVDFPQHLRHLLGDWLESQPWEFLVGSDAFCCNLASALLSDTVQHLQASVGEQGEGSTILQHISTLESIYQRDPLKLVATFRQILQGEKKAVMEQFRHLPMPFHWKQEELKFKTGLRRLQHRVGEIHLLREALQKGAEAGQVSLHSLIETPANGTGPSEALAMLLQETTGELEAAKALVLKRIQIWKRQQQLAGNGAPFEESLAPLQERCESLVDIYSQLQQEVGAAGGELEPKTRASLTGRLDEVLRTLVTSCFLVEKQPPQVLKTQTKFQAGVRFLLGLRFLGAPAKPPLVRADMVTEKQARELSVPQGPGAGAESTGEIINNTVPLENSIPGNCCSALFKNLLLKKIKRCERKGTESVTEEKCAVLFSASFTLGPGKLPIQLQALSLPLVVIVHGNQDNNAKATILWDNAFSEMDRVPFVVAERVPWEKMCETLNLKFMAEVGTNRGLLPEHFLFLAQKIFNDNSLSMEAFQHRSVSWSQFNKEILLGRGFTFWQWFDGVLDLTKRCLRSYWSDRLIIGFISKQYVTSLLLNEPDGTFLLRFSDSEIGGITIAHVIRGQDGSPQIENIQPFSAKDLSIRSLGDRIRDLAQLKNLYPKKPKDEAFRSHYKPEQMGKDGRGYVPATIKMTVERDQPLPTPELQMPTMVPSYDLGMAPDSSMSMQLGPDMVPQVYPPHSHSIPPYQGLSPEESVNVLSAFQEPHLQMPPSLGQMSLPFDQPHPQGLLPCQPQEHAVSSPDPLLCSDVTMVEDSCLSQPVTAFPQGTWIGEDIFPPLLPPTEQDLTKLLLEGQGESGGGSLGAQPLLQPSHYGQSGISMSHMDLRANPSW",
  "data": [
    {"substance": "HA-Tip-YYFY (Y127F) (natural protein)", "values": [
      {"measurement": "STAT6-responsive luciferase reporter in 293T cells transfected with Lck and Tip variants, against wildtype Tip (fold reduction)", "result": 3}
    ]}
  ]
}
